Assay results: patent US20140093973A1
Several values for one entry are separate records, joined by “and”; a condition that tells them apart may be missing. Equal values may be shown once. Read-outs that look alike come from different tables or passages of the source. Ends that are not written are not given here. * marks the point of attachment. FITC = O=C1OC2(c3ccc(O)cc3Oc3cc(O)ccc32)c2ccc(NC(=S)*)cc21

What was measured:
[1] = molecular target: soluble HLA-A*0201 (sHLA-A*0201) (human); assay: standardized FP competition against 1 nM FITC-P5, 50 ug/mL sHLA-A*0201, excess b2m
[2] = molecular target: soluble HLA-A*0201 (sHLA-A*0201) (human)
[3] = molecular target: soluble HLA-A*0201 (sHLA-A*0201) (human); remark: listed apart in the source
[4] = molecular target: soluble HLA-A*0201 (sHLA-A*0201) (human); remark: listed apart in the source
[5] = molecular target: soluble HLA-A*0201 (sHLA-A*0201) (human); remark: listed apart in the source
[6] = molecular target: soluble HLA-A*0201 (sHLA-A*0201) (human); remark: listed apart in the source
[7] = molecular target: soluble HLA-A*0201 (sHLA-A*0201) (human); remark: listed apart in the source
[8] = molecular target: soluble HLA-A*0201 (sHLA-A*0201) (human); remark: listed apart in the source
[9] = molecular target: soluble HLA-A*0201 (sHLA-A*0201) (human); remark: listed apart in the source
[10] = molecular target: soluble HLA-A*0201 (sHLA-A*0201) (human); remark: listed apart in the source
[11] = molecular target: soluble HLA-A*0201 (sHLA-A*0201) (human); remark: listed apart in the source
[12] = molecular target: soluble HLA-A*0201 (sHLA-A*0201) (human); assay: FP equilibrium titration with variable pFITC, 425 nM sHLA-A*0201, 20 C
[13] = molecular target: soluble HLA-A*0201 (sHLA-A*0201) (human); assay: FP, sHLA-A*0201 titrated against 10 nM FITC-labeled P4, plateau of the fit
[14] = molecular target: soluble HLA-A*0201 (sHLA-A*0201) (human); assay: FP real-time association kinetics, 50 ug/mL sHLA-A*0201, excess b2m, 20 C
[15] = molecular target: soluble HLA-A*0201 (sHLA-A*0201) (human); assay: FP real-time association kinetics, intercept of kob against ligand concentration
[16] = molecular target: soluble HLA-A*0201 (sHLA-A*0201) (human); assay: FP kinetics, Kd = koff/kon
[17] = molecular target: soluble HLA-A*0201 (sHLA-A*0201) (human); assay: FP, pFITC P4 titrated at 425 nM (20 µg/ml) sHLA-A*0201; FPmin = 27.00 mP
[18] = molecular target: soluble HLA-A*0201 (sHLA-A*0201) (human); assay: FP, sHLA-A*0201 titrated against 10 nM FITC-labeled P4; the EC50 is an sHLA concentration
[19] = molecular target: soluble HLA-A*0201 (sHLA-A*0201) (human); assay: FP saturation isotherm (bound against free pFITC), 425 nM sHLA-A*0201, one-site fit
[20] = molecular target: soluble HLA-A*0201 (sHLA-A*0201) (human); remark: listed apart in the source
[21] = molecular target: soluble HLA-A*0201 (sHLA-A*0201) (human); remark: listed apart in the source
[22] = molecular target: soluble HLA-A*0201 (sHLA-A*0201) (human); remark: listed apart in the source
[23] = molecular target: soluble HLA-A*0201 (sHLA-A*0201) (human); remark: listed apart in the source
[24] = molecular target: soluble HLA-A*0201 (sHLA-A*0201) (human); remark: listed apart in the source
[25] = molecular target: soluble HLA-A*0201 (sHLA-A*0201) (human); remark: listed apart in the source
[26] = molecular target: soluble HLA-A*0201 (sHLA-A*0201) (human); remark: listed apart in the source

B1: … (peptide)
peptide: YLLPAIVHI
modifications: not checked
B1 was tested, and the IC50 [1] was 510 nM.

B2: … (peptide)
peptide: DLVHFASPL
modifications: not checked
With B2 the IC50 [2] was 366000 nM.

B3: … (peptide)
peptide: KLGEFYNQMM
modifications: not checked
In the case of B3, the IC50 [3] is reported as 2480 nM, the IC50 [4] is reported as 10500 nM and the IC50 [5] is reported as 596 nM. It also gave an IC50 [6] of 2480 to 10500 nM, an IC50 [7] of 7670 nM and an IC50 [8] of 2870 nM. The log IC50 [9] was 3.08 log nM and 3.45 log nM, the IC50 [10] was 3060 nM and the log IC50 [11] was 3.31 log nM and 3.7 log nM and 3.67 log nM. It also gave an IC50 [2] of 2820 nM.

B4: A*0201/P4, FITC-labeled peptide … (peptide)
peptide: LVFGKEVVEV
modifications: not fully specified
For B4, the Kd [12] was 21.8 nM, the FPmax [13] was 230 mP and the kon [14] was 9900 M⁻¹ s⁻¹. For the same binder, the koff [15] was 0.000284 s⁻¹, the Kd [16] was 28.5 nM and the FPmax [17] was 200 mP. The EC50 [18] was 283 nM, the Bmax [19] was 89.7 nM and the Kd [19] was 21.8 nM.

B5: A*0201/P5, FITC-labeled peptide ALMDKVL-K(FITC)-V (peptide)
peptide: ALMDKVLK(FITC)V
For B5, the increase of signal upon binding [20] was > 900%, the maximum polarization signal [20] was 245 mP and the FPmax [21] was 195 mP. The % binding [22] was 40%, the maximal FP signal [23] was 220 to 230 mP and the Bmax [24] was 141 nM. The Kd [24] was 17.3 nM, the Kd [25] was 17.3 nM and the EC50 [26] was 327 nM.
